Publication PMC5095149, “Molecular cloning, heterologous expression, and enzymatic characterization of lysoplasmalogen‐specific phospholipase D from Thermocrispum sp” (FEBS Open Bio, 2016)

Legend:
LyPls-PLD (rLyPls-PLD) = target: T1, LyPls-PLD (rLyPls-PLD) (Thermocrispum sp. RD004668, UniProt A0A0U4VTN7); test: inhibition of LyPlsCho hydrolysis, choline oxidase/peroxidase colorimetric assay; assay type: biochemical; details: read-out: Relative activity (%) ^a
T1 construct: gene lyspls; pET24a(+), E. coli SHuffle T7, HisTrap purified; kinetics calculated as monomer
Excerpt: inhibition of LyPlsCho hydrolysis, choline oxidase/peroxidase colorimetric assay on LyPls-PLD (rLyPls-PLD)

[1] = substrate: CCCCCCCCCCCCCCCC/C=C\OC[C@@H](O)COP(=O)([O-])OCC[N+](C)(C)C; test: choline release, choline oxidase/peroxidase colorimetric assay; nonlinear Michaelis-Menten fit; assay type: biochemical, Thermocrispum sp. RD004668; details: 80 mM Tris/HCl pH 8.0, 50 °C, 2 mM CaCl2, 30 s
Excerpt: choline release, choline oxidase/peroxidase colorimetric assay; nonlinear Michaelis-Menten fit on LyPls-PLD (rLyPls-PLD)

purified protein = substrate: CCCCCCCCCCCCCCCC/C=C\OC[C@@H](O)COP(=O)(O)OCCN; test: purified protein; details: 80 mM Tris/HCl pH 8.0, 50 °C
[2] = substrate: CCCCCCCCCCCCCCCC/C=C\OC[C@@H](O)COP(=O)([O-])OCC[N+](C)(C)C; test: choline release, choline oxidase/peroxidase colorimetric assay; Hanes-Woolf plot; assay type: biochemical, Thermocrispum sp. RD004668; details: 80 mM Tris/HCl pH 8.0, 50 °C, 2 mM CaCl2
Excerpt: choline release, choline oxidase/peroxidase colorimetric assay; Hanes-Woolf plot on LyPls-PLD (rLyPls-PLD)

`CCCCCCCCCCCCCCCCCC(=O)OC[C@@H](O)COP(=O)(O)O` [LPA, 1‐stearoyl‐2‐hydroxy‐sn‐glycero‐3‐phosphate] gave an activity at 4000 µM (LyPls-PLD (rLyPls-PLD)) of 89.8 ± 0.3%.

Work on `CCCCCCCCCCCCCCCC(=O)OC[C@@H](O)COP(=O)([O-])OCC[N+](C)(C)C` [LPC, 1‐palmitoyl‐2‐hydroxy‐sn‐glycero‐3‐phosphocholine] yielded an activity at 4000 µM (LyPls-PLD (rLyPls-PLD)) of 60.7 ± 0.5%.

B1: LyPls-PLD (rLyPls-PLD) (Thermocrispum sp. RD004668) (protein)
chain: TTRTTDNPWLDARVLNMAHAGGENEAPANTLYAFKRAVKLGANMLELDVQSTKDDQLVVIHNATVDQTTDGTGKVRDLTFEQVHELDAAYNFIPGRHAVPGEPPESYPLRGVRTGEKKPPPGYQPSDFAIPKLADVLEAFPRTPINIEIKGTSDADIPSFLHNAKLLARLLKKTGRTDFIVTSFNDLAVAKFHLLAPDIPIAPGMAGLAAYFLLGVKPMHGTVALQIPVRYQGLEIATPEFIRRAHADGYAVHVWFSGTAPDDEATYNRIIDSCADGLMPAYPALLERILDERGIERPGRPGVDPCG
notes: pET24a(+), E. coli SHuffle T7, HisTrap purified; kinetics calculated as monomer
Work on B1 yielded a Km [1] of 13.2 µM, a kcat [1] of 70.6 s⁻¹ and a kcat/Km [1] of 5.34e+06 M⁻¹ s⁻¹. The Km (purified protein; 2 mM CaCl2, 3 min) was 456 µM, the kcat (purified protein; 2 mM CaCl2, 3 min) was 4.51 s⁻¹ and the kcat/Km (purified protein; 2 mM CaCl2, 3 min) was 9900 M⁻¹ s⁻¹.

B2: LyPls-PLD (rLyPls-PLD) (Thermocrispum sp. RD004668; F211A) (protein)
chain: TTRTTDNPWLDARVLNMAHAGGENEAPANTLYAFKRAVKLGANMLELDVQSTKDDQLVVIHNATVDQTTDGTGKVRDLTFEQVHELDAAYNFIPGRHAVPGEPPESYPLRGVRTGEKKPPPGYQPSDFAIPKLADVLEAFPRTPINIEIKGTSDADIPSFLHNAKLLARLLKKTGRTDFIVTSANDLAVAKFHLLAPDIPIAPGMAGLAAYFLLGVKPMHGTVALQIPVRYQGLEIATPEFIRRAHADGYAVHVWFSGTAPDDEATYNRIIDSCADGLMPAYPALLERILDERGIERPGRPGVDPCG
notes: as for B1
With B2 the Km [2] was 112 µM, the kcat [2] was 24.8 s⁻¹ and the kcat/Km [2] was 221000 M⁻¹ s⁻¹. For the same molecule, the Km (purified protein; 2 mM CaCl2) was 281 µM, the kcat (purified protein; 2 mM CaCl2) was 2.88 s⁻¹ and the kcat/Km (purified protein; 2 mM CaCl2) was 10300 M⁻¹ s⁻¹.
